US6066621A, “Synthetic peptides for the treatment of myasthenia gravis” (Yeda Research and Development Co. Ltd., priority 1995, dated 2000)
Where no end group is shown, it is not given here. The star is where a group is joined. Biotin = O=C1N[C@H]2[C@H](CS[C@H]2CCCCC(=O)*)N1; Ahx = NCCCCCC(=O)O

Assays:
[1] = target: p259-271 presented by antigen-presenting cells of MG patients (HLA class II) (human)
[2] = target: p195-212 presented by antigen-presenting cells of MG patients (HLA class II) (human)
[3] = tested on: peripheral blood lymphocytes (PBL) of myasthenia gravis patients; conditions: 96 h
Method: Peripheral blood lymphocytes (PBL) of myasthenia gravis patients and of the appropriate control donors (2×10^5 cells/well) were assayed in microtiter plates in 0.2 ml enriched medium containing 10% autologous serum, in the presence of different doses of the peptides p195-212 and the analog 207Ala for 96 h, followed by an overnight pulse with 0.5 μCi of ^3 H-thymidine. Cells were harvested and radioactivity determined. Inhibition of the proliferative responses was done by adding different doses of 207Ala into the incubation mixture at the same time as the pathogenic peptide p195-212.

[4] = target: MHC class II on human antigen presenting cells
[5] = target: MHC class II of SJL mice (on antigen presenting cells); assay: flow cytometry, biotinylated peptide on SJL antigen presenting cells, PE-streptavidin
[6] = target: MHC Class II molecules of BALB/c mice (on syngeneic spleen cells used as antigen-presenting cells)
[7] = target: MHC Class II molecules of BALB/c mice (on syngeneic spleen cells used as antigen-presenting cells); remark: listed apart in the source
[8] = target: MHC Class II molecules of BALB/c mice (on syngeneic spleen cells used as antigen-presenting cells); remark: listed apart in the source
[9] = target: MHC class II of SJL mice (on antigen presenting cells)

Method for T cell line TCSJL195-212: T cell lines and clones specific to p195-212 were established from lymph node cells of high (SJL) responder mouse strain by the method described by Brocke et al. (1990a), supra, and designated TCSJL195-212 line (Mozes, E. et al. (1991), supra; see also Kirshner et al. (1994), supra).
Cells (10^4 per well) of the T cell Line TCSJL195-212 or TCBALB/c259-271 were incubated in the presence of irradiated syngeneic spleen cells (0.5×10^6), either p195-212 or p259-271 (10 μM) and various concentrations of the dual epitope analogs 207Ala-262Lys or 262Lys-207Ala for 48 h. Thereafter, ^3 H-thymidine was added and 16 h later plates we harvested.

## peripheral blood lymphocytes (PBL) of myasthenia gravis patients (cells without a defined receptor)
[1]
  proliferative response of PBL, stimulation index (SI) (stimulation index): 4.1
[2]
  proliferative response of PBL, stimulation index (SI) (stimulation index): 6.3

## DTPYLDITYHFVAQRLPL [207Ala]
[3]
  inhibition of proliferative responses of PBL, all three patients: 77-100%
T cell line TCSJL195-212
  inhibition of the proliferative response of the TCSJL195-212 line to p195-212: more than 99%

## VIVELIPDTSSAV [266Asp analog of p259-271]
[4]
  % inhibition of the p259-271 induced proliferative response of PBL (three MG patients): 85.6 % inhibition

## {Biotin-Ahx}-VIVKLIPSTSSAVDTPYLDITYHFVAQRLPL [biotinylated dual analog 262Lys-207Ala]
[5]
  fold affinity against 207Ala-262Lys: 10 fold

## VIVKLIPSTSSAV [262Lys analog of p259-271]
[6]
  inhibition of the helper activity of TCBALB/c259-271 (p259-271 specific antibody production): < 80 % inhibition
[7]
  % of inhibition of the p259-271 specific proliferative response of TCBALB/c259-271: < 93 % inhibition
[4]
  % inhibition of the p259-271 induced proliferative response of PBL (three MG patients): 100 % inhibition
[8]
  inhibition of the proliferative response of lymph node cells of p259-271 immunized BALB/c mice to p259-271: < 64.7 % inhibition

## VIVDLIPSTSSAV [262Asp analog of p259-271]
[4]
  % inhibition of the p259-271 induced proliferative response of PBL (three MG patients): 78 % inhibition

## DTPYLDITYHFVAQRLPL [207Ala analog of p195-212]
[9]
  inhibition of the p195-212 specific proliferative response of TCSJL195-212: > 99 % inhibition
